According to publication PMC4978566:

Target: A/California/04/2009 H1 (influenza A virus A/California/04/2009) (UniProt C3W5S1)
Experiment: crystal structure

Substance: A/California/04/2009 H1 (from UniProt C3W5S1 18-520) (natural protein)
- stoichiometry N: 2
